In paper PMC11285941:

Biological target: ALTO with a NanoBiT tag at its N-terminus (Merkel cell polyomavirus)
Assay: split reporter (BiFC, NanoBiT); NanoBiT in live HEK293 cells, 50 ng LgBiT + 50 ng SmBiT plasmid, 20-24 hours after transfection, NanoGlo reagent, luminescence; an interaction counts when the reading is tenfold above the LgBiT construct with the SmBiT negative control

Question: How did the luminescence against the LgBiT-tagged construct with the SmBiT negative control turn out when “STING-LgBiT (from UniProt Q86WV6 1-379) (natural protein)” was run?
Answer: The luminescence against the LgBiT-tagged construct with the SmBiT negative control was > 10 fold.

B1: LgBiT-TBK1 (enzyme)
chain: MQSTSNHLWLLSDILGQGATANVFRGRHKKTGDLFAIKVFNNISFLRPVDVQMREFEVLKKLNHKNIVKLFAIEEETTTRHKVLIMEFCPCGSLYTVLEEPSNAYGLPESEFLIVLRDVVGGMNHLRENGIVHRDIKPGNIMRVIGEDGQSVYKLTDFGAARELEDDEQFVSLYGTEEYLHPDMYERAVLRKDHQKKYGATVDLWSIGVTFYHAATGSLPFRPFEGPRRNKEVMYKIITGKPSGAISGVQKAENGPIDWSGDMPVSCSLSRGLQVLLTPVLANILEADQEKCWGFDQFFAETSDILHRMVIHVFSLQQMTAHKIYIHSYNTATIFHELVYKQTKIISSNQELIYEGRRLVLEPGRLAQHFPKTTEENPIFVVSREPLNTIGLIYEKISLPKVHPRYDLDGDASMAKAITGVVCYACRIASTLLLYQELMRKGIRWLIELIKDDYNETVHKKTEVVITLDFCIRNIEKTVKVYEKLMKINLEAAELGEISDIHTKLLRLSSSQGTIETSLQDIDSRLSPGGSLADAWAHQEGTHPKDRNVEKLQVLLNCMTEIYYQFKKDKAERRLAYNEEQIHKFDKQKLYYHATKAMTHFTDECVKKYEAFLNKSEEWIRKMLHLRKQLLSLTNQCFDIEEEVSKYQEYTNELQETLPQKMFTASSGIKHTMTPIYPSSNTLVEMTLGMKKLKEEMEGVVKELAENNHILERFGSLTMDGGLRNVDCL
Question: How did the luminescence against the LgBiT-tagged construct with the SmBiT negative control turn out when B1 was run?
Answer: Its luminescence against the LgBiT-tagged construct with the SmBiT negative control is > 10 fold.
